Tests used:
[1] = molecular target: Tat protein from HIV-1 strain BH10 (HIV-1 strain BH10) (UniProt P69697); assay: SPR, kinetic experiment (FIG. 5B)
[2] = molecular target: Tat protein from HIV-1 strain BH10 (HIV-1 strain BH10) (UniProt P69697); assay: ITC in free solution (FIG. 7)

gp140 Env protein from HIV-1 strain SF162 (o-gp140SF162), trimer (from UniProt P19550 32-675)
Kd [1]: 37 nM
stoichiometry (Tat molecules per Env trimer) (Tat molecules per Env trimer) [2]: 3

Reference: patent publication US20080300385A1
